From publication PMC5797236, “The odd one out: Arabidopsis reticulon 20 does not bend ER membranes but has a role in lipid regulation” (Scientific Reports, 2018)

T1: GFP-RTN20 (Arabidopsis reticulon 20) (Arabidopsis thaliana, UniProt A9X4U2 1-561)
T1 construct: Reticulon 20 (RTN20), Arabidopsis thaliana, locus At2g43420; FRET donor; the methods name Gateway vectors for N- or C-terminal GFP without saying which was used for each gene; also called RTNLB20; source: tobacco (Nicotiana tabacum) leaf epidermal cells, Agrobacterium-mediated transient expression, in living cells; not shown: GFP, N-terminal, kept
T1 sequence (looked up): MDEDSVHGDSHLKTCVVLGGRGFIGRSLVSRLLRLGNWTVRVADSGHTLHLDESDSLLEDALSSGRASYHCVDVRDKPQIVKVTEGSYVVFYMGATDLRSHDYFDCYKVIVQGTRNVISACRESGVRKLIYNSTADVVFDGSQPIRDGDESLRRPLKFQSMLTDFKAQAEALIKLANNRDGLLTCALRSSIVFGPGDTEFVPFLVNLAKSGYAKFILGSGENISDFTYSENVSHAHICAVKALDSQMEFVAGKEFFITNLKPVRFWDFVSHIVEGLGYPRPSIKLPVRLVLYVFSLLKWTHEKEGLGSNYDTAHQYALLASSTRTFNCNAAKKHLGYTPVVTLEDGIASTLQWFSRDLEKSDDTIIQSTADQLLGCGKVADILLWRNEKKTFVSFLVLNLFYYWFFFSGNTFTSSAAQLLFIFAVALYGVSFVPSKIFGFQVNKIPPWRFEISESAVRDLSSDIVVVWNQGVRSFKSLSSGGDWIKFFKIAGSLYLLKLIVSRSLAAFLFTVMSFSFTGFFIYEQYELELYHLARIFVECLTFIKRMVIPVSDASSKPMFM

B1: RTN2 fused to mRFP (Arabidopsis reticulon 2) (natural protein, Arabidopsis thaliana, UniProt Q9SUT9 1-271, looked up)
chain: MADEHKHEESSPNLDPAVEVVERESLMEKLSEKIHHKGDSSSSSSSDDENEKKSSSSSPKSLKSKVYRLFGRERPVHKVLGGGKPADIFMWKDKKMSGGVFGGATVAWVLFELMEYHLLTLLCHVMIVALAVLFLWSNATMFIHKSPPKIPEVHIPEEPLLQLASGLRIEINRGISSLREIASGRDIKKFLSAIAGLWVLSILGGCYSFLTLAYIALVLLFTVPLFYDKYEDKVDSYGEKAMAELKKQYAVLDAKVFSKIPRGPLKDKKKD
notes: Reticulon 2 (RTN2), Arabidopsis thaliana, locus AT4G11220; FRET acceptor; also called RTNLB2; source: tobacco (Nicotiana tabacum) leaf epidermal cells, Agrobacterium-mediated transient expression, in living cells
B2: RTN3 fused to mRFP (Arabidopsis reticulon 3) (natural protein, Arabidopsis thaliana, UniProt Q9SH59 1-255, looked up)
chain: MAEEHKHEESIMEKISEKIHGHDDSSSSSSDSDDDKNSASLKTKIYRLFGREQPLHKLFGGGKPADIFLWRNKKVSGGVLGAATVSWILFELLEYNLLTLFGHISILALAVLFLWSSASTFIHKSPLHIPEVHIPEDVVLQLASGLRIEINRGFTVLRDIASGRDLKKFLLVIAGLWVLSKVGSSCNFLTLIYIATVLLFTIPVLYEKYEDKVDDFGEKAMREIKKQYVEFDVKVLSKVMSKIPKGAFAFIKKKD
notes: Reticulon 3 (RTN3), Arabidopsis thaliana, locus AT1G64090; FRET acceptor; also called RTNLB3; source: tobacco (Nicotiana tabacum) leaf epidermal cells, Agrobacterium-mediated transient expression, in living cells
B3: mRFP-RTN1 (Arabidopsis reticulon 1) (natural protein, Arabidopsis thaliana, UniProt Q9SUR3 1-275, looked up)
chain: MAEEHKHDESVIAPEPAVEVVERESLMDKISEKIHHGGDSSSSSSSSDDEDEKKKTKKPSSPSSSMKSKVYRLFGREQPVHKVLGGGKPADIFMWKNKKMSGGVLGGATAAWVVFELMEYHLLTLLCHVMIVVLAVLFLWSNATMFINKSPPKIPEVHIPEEPILQLASGLRIEINRGFSSLREIASGRDLKKFLIAIAGLWVLSILGGCFNFLTLAYIALVLLFTVPLAYDKYEDKVDPLGEKAMIELKKQYAVLDEKVLSKIPLGPLKNKKKD
notes: Reticulon 1 (RTN1), Arabidopsis thaliana, locus AT4G23630; FRET acceptor; also called RTNLB1; source: tobacco (Nicotiana tabacum) leaf epidermal cells, Agrobacterium-mediated transient expression, in living cells; not shown: mRFP, N-terminal, kept
B4: RTN19 fused to mRFP (Arabidopsis reticulon 19, 3BETAHSD/D2) (natural protein, Arabidopsis thaliana, UniProt Q67ZE1 1-564, looked up)
chain: MSPAATETERWCVVTGGRGFAARHLVEMLVRYEMFCVRIADLAPAIMLDPQEGNGVLDEGLRSGRVQYISADLRDKSQVVKAFQGAEVVFHMAAPDSSINNHQLQYSVNVQGTQNVIDACVDVGVKRLIYTSSPSVVFDGVHGILNGTESMAYPIKHNDSYSATKAEGEELIMKANGRNGLLTCCIRPSSIFGPGDRLLVPSLVAAARAGKSKFIIGDGNNLYDFTYVENVAHAHVCAERALASGGDVSTKAAGQAYFITNMEPIKFWEFMSQLLDGLGYERPSIKIPAFIMMPIAHLVELTYKVLGPYGMTVPQLTPSRVRLLSCSRTFDSTKAKDRLGYAPVVPLQEGIRRTIDSFSHLTAGSQSKREGPSKASRILGGGKVADTLLWKDLKQTLIAIFILISIYYNFVATGSTVVTALSKALLVASVFLFLHGILPEKIFGYTVEKIPASQFHLSKDSSHDLSLSVISSWNTTVKALRSLCQGNDWSFFFKVVFVLLALSLAGAISLHSIFVIGLPIAFLAFLVYEKKEQEIDSIVVSFKSFACKHKSDVYEKLFGSKKHD
notes: Reticulon 19 (RTN19, 3beta-hydroxysteroid dehydrogenase/C-4 decarboxylase isoform 2), Arabidopsis thaliana, locus At2g26260; FRET acceptor; also called RTNLB19; source: tobacco (Nicotiana tabacum) leaf epidermal cells, Agrobacterium-mediated transient expression, in living cells

Target: T1, GFP-RTN20 (Arabidopsis reticulon 20)
Assay: FRET or BRET; FRET-FLIM in living tobacco leaf epidermal cells; GFP-RTN20 as donor, mRFP fusions as acceptors, transiently co-expressed; two-photon excitation at 920 nm; lifetimes measured at the ER associated with the nuclear envelope; donor alone 2.4 ± 0.03 ns
Conditions: partners not purified

Row | Binder | GFP donor fluorescence lifetime (FRET-FLIM) [ns]
1 | B1 | 2.2
2 | B2 | 2.2
3 | B3 | 2.21 ± 0.02
4 | B4 | 2.2
